{
  "source": "patent US20200181212A1",
  "about": "(priority 2014, published 2020)",
  "origin": "cited, not measured here",
  "test_system": "trypsin",
  "conditions": "cited from earlier work",
  "data": [
    {"substance": "asparaginase [native asparaginase]", "values": [
      {"measurement": "residual activity", "result": 5, "unit": "%"}
    ]}
  ]
}
